Source: paper PMC6026870, “Selective induction of cancer cell death by VDAC1‐based peptides and their potential use in cancer therapy” (Molecular Oncology, 2018)
Ends that are not written are not given here.

B1: Antp‐LP4 (peptide)
peptide: RQIKIWFQNRRMKWKKSWTWEKKLETAVNLAWTAGNSNKWTWK
notes: amino acids added to form a loop‐shaped tryptophan zipper (N‐terminal arm); amino acids added to form a loop‐shaped tryptophan zipper (C‐terminal arm); 43 residues as printed; source: synthetic peptide (GL Biochem, > 85% purity)

Key:
[1] = tested on: PANC1; experiment: Cell death, PI staining and FACS; format: cell-based; conditions: PANC1 (Group 3, Fig. 1H); 6 h; about 10% in the absence of peptides
Experimental: (§1) Leukemia cells, U‐937, MEC‐1 cells (4 × 10^5 or 8 × 10^5 cells/sample, respectively), as well as other leukemia or suspension cell lines, were incubated in 200 μL serum‐free medium with various concentrations of the peptide for 90 min at 23–25 °C, collected by centrifugation (500 g, 5 min), washed with PBS, and analyzed for cell death. Adherent cells (6 × 10^5 mL^−1 at 70–80% confluence) were incubated with the peptide of interest in 500 μL serum‐free recommended culture medium for 3–6 h at 37 °C and 5% CO2. The cells were then trypsinized, centrifuged (1500 g, 5 min), washed with PBS, and analyzed for the desired activity. Following peptide treatment, cells were subjected to cell death analysis. […] PRO software (BD Biosciences, San Jose, CA, USA).
(§2) For each line, cells were incubated with different peptide concentrations, and cell death was determined by PI staining and FACS analysis (Figs 1, 2, 3).

[2] = tested on: T‐Rex‐293; experiment: Cell death, PI staining and FACS; format: cell-based, human; conditions: T‐Rex‐293 (Group 3, Fig. 1I); 6 h; about 10% in the absence of peptides
Experimental: as §1, §2

[3] = target: T1, Human hexokinase II (HK‐II), recombinant (human, UniProt P52789 1-917, fluorescently labeled using a NanoTemper BLUE protein‐labeling kit (in the MST)); experiment: MST; fluorescently labeled HK‐I (830 nM) or HK‐II (100 nM) incubated 20 min with peptide (1–100 μM) in PBS; NanoTemper Monolith‐NT115, 40% LED, 40% IR laser power; conditions: both partners purified
T1 construct: hexokinase II (HK‐II), human, cloned into plasmid pET‐His; source: E. coli BL21, IPTG induction, purified (HiTrap nickel column, Blue HiTrap column)
T1 sequence (looked up): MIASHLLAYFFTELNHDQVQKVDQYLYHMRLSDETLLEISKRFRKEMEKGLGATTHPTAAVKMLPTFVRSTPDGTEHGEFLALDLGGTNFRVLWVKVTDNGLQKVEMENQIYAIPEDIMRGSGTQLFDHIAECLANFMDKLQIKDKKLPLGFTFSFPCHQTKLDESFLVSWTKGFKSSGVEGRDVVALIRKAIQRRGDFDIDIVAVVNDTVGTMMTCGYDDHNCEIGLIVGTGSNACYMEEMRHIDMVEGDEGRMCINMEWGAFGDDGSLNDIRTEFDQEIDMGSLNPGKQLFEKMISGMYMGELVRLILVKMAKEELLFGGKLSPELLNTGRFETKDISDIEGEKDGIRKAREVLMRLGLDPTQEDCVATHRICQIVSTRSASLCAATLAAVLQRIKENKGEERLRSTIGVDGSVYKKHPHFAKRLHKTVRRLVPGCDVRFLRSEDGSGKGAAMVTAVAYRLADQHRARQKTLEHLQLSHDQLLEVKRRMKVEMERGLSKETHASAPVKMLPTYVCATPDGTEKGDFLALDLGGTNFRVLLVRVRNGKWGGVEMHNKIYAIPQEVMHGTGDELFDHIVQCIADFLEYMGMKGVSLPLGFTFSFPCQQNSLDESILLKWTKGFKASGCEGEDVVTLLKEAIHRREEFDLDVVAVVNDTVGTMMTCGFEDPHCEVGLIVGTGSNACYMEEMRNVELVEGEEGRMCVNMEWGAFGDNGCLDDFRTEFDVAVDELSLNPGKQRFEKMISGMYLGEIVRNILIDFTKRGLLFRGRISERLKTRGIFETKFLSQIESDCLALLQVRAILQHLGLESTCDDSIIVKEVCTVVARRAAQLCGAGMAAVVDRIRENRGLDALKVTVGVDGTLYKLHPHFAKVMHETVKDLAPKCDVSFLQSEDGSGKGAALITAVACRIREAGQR

[4] = target: T2, Human hexokinase I (HK‐I), recombinant (human, UniProt P19367 1-917, fluorescently labeled using a NanoTemper BLUE protein‐labeling kit (in the MST)); experiment: as above; conditions: both partners purified
T2 construct: hexokinase I (HK‐I), human, cloned into plasmid pET‐His; Also used for the functional rows, where HK‐I was endogenous in A549 or HeLa cells or was HK‐I‐GFP (pEGFP‐HK‐I) in HeLa cells; source: E. coli BL21, IPTG induction, purified (HiTrap nickel column, Blue HiTrap column)
T2 sequence (looked up): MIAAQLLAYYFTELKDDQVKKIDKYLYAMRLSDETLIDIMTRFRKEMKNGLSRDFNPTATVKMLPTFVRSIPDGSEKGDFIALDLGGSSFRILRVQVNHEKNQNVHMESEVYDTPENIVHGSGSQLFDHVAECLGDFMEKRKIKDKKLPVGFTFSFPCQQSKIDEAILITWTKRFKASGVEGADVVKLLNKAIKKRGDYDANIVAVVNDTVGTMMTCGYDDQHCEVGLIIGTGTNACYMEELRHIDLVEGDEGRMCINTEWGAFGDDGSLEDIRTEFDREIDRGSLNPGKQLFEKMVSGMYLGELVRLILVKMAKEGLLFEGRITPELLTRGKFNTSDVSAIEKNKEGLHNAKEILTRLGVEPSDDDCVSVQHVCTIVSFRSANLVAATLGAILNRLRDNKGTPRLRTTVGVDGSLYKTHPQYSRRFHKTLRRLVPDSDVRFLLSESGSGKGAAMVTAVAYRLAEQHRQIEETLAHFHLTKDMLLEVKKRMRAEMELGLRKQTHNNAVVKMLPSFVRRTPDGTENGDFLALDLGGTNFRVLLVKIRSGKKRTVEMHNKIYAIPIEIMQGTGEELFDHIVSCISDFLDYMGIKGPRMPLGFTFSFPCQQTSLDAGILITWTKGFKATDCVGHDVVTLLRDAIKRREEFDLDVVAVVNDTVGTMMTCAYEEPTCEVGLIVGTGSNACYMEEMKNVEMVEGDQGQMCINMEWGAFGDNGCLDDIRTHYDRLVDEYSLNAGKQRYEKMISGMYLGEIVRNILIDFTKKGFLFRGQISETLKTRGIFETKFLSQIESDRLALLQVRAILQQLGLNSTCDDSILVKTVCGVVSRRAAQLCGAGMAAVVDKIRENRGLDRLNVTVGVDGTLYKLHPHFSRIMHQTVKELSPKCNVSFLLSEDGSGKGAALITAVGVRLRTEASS

[5] = target: T3, Human hexokinase II (HK‐II), recombinant (human, UniProt P52789 1-917, fluorescently labeled using a NanoTemper BLUE protein‐labeling kit (in the MST)); experiment: MST
T3 chain: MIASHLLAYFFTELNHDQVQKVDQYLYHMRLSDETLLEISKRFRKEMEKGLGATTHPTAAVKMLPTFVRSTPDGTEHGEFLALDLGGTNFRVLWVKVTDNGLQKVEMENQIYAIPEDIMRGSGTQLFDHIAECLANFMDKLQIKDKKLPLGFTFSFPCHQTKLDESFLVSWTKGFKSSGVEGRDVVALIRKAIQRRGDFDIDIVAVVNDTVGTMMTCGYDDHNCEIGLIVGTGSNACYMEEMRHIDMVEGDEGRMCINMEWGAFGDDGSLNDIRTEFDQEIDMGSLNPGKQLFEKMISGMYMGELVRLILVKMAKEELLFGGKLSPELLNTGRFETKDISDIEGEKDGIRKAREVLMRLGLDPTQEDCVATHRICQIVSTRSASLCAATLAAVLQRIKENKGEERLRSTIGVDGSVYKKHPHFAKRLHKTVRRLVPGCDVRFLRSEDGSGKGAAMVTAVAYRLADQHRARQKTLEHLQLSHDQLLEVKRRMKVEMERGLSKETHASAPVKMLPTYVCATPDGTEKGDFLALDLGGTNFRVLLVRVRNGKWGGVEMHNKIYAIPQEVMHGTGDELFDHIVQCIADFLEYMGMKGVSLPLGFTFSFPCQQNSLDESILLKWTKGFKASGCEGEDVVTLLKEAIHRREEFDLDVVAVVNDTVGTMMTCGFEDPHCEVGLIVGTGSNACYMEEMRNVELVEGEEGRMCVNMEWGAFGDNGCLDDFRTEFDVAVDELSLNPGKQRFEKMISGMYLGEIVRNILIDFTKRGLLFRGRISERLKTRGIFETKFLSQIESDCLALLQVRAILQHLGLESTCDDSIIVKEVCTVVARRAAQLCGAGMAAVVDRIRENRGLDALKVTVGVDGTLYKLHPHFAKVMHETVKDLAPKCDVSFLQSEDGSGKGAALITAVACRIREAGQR

Molecule | steady‐state level of cell death [1] | steady‐state level of cell death [2] | binding result [3] | binding result [4] | Kd [5] [µM]
MAVPPTYADLGKSARDVFTKGYGFGLRQIKIWFQNRRMKWKK [N‐Ter‐Antp] | about 50% | about 50% | – | – | –
B1 | – | – | binds | binds | 7.1
